Measured values from patent publication US20130280318A1, “Tissue Scaffolds for Controlled Release of Active Agents” (The Trustees of Columbia University in the City of New York, priority 2010, published 2013).

Test system: Chondrocytes
Assay: Chondrocyte growth on scaffolds (total DNA, Picogreen)
Type: cell-based, bovine
Conditions: TGF-β3 released from tissue scaffold
Protocol: Chondrocytes enzymatically digested from bovine calves (6×10^4 cells/cm^2) were cultured on scaffolds in serum-free ITS+ media. Experimental group included PLGA-TGFβ3 scaffolds, while cells cultured on PLGA and on PLGA with exogenous TGF-β3 (1 ng/mL) served as controls. Viability was evaluated with confocal microscopy (n=3).
Total DNA (n=6) was quantified by Picogreen Assay. Glycosaminoglycan (GAG) and collagen syntheses (n=6) were assessed by dimethylmethylene blue (DMMB) and Sircol assays, respectively. Gene expressions (Col I, II, and X) were analyzed by RT-PCR (n=4).

B1: transforming growth factor-beta 3 (protein, UniProt P10600 301-412, looked up)
Transforming growth factor …: ALDTNYCFRNLEENCCVRPLYIDFRQDLGWKWVHEPKGYYANFCSGPCPYLRSADTTHSTVLGLYNTLNPEASASPCCVPQDLEPLTILYYVGRTPKVEQLSNMVVKSCKCS
modifications: Transforming growth factor beta-3
  bioactivity of released TGF-β3 (chondrocyte proliferation and biosynthesis): bioactive
